According to US20110165623A1:

Experiments:
[1] = biological target: purified recombinant mature TGFβ1 (expressed in CHO cells from the modified porcine TGFβ1 cDNA) (porcine) (UniProt P07200); test: surface plasmon resonance, steady state response, double reciprocal plot; x axis printed as 1/[TβRII] (µM-1), y axis 1/Binding RU
[2] = biological target: purified recombinant mature TGFβ1 (expressed in CHO cells from the modified porcine TGFβ1 cDNA) (porcine) (UniProt P07200); test: SPR (BIAcore 3000); TGFβ1 immobilised on a CM5 chip, TβRII 150 nM to 0.6 nM as analyte; steady state, linear regression of 1/Response versus 1/C; TGFβ1 immobilised on the chip, TβRII as analyte; steady state

UniProt P07200, sequence (P07200 279-390): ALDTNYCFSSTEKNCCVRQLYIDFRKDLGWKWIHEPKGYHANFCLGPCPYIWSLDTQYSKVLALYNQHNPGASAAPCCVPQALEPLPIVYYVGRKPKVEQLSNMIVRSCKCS

intercept of the linear regression of 1/Binding RU against 1/[TβRII] [1]: 0.00102 | Kd [2]: 55 nM
Substance: TGFβ1 type II receptor (residues 22-136), refolded from inclusion bodies (from UniProt P37173 45-159)
